assay: yeast display, Sf9 membrane polyspecificity reagent, FACS + sequencing; frameworks hold sequencing errors
Procedure, shortened: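 Genes from sorted yeast were amplified by colony PCR, read by MiSeq 2 × 250 sequencing and filtered on CDR length. These cells carried a synthetic nanobody library in Saccharomyces cerevisiae BJ5465 and were sorted by FACS into low and high (top ~1%) gates on anti-HA and streptavidin fluorescence. Polyreactivity is labelled according to the gate of origin.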

Row | Sequence | polyreactivity (PSR sort gate)
1 | QVQLVESGGGLVQAGGSLRLSCAASGFTFEYNAMGGYRQDPGKERELVAAITTTGSTYYADSVKGRFTISRDNAKNTVYLQMNSLKPEDTAVYYCAADPVWRGYSYQFDYWGQGTQVTVSS | low polyreactivity
2 | QVQLVESGGGLVQAGGSLRLSCAASGFTFEYYAMGWYRQAPWKERELVATITWNGGSTYYADSVKGRFTISRDNAKNTVYFQMNSLKPEDTAVYYCAADEQAYYVRRFDYWGQGTQVTVSS | low polyreactivity
3 | QVQLVESGGGLVQAGGSLRLSCAASGFTFFINGMGWYRQAPGKERELVAAIRSSGASTYDADSVKGRFTISRDNAKNTVYLQMNSLQPEDTAVYYCAVPLGAVGGPVDYWGQGTQVTVSS | low polyreactivity
4 | QVQLVESGGGLVQAGGSLRLSCAASGFTFFKYAMGWYRQAPGKERELVAAITRNGGRTYYADSVKGRFTISRDNAKNTVYLQMNSLKPEDTAVYYCAAVQYRYGGMDYWGQGTQVTVSS | high polyreactivity
5 | QVQLVESGGGLVQAGGSLRLSCAASGFTFFQYAKGWYRQAPGKERELVAAISARGGRTYYADSVKGRFTISRDNAKNTVYLQMNSLKPEDTAVYYCAKRTRTIQGHYDYWGQGTQVTVSS | high polyreactivity
6 | QVQLVESGGGLVQAGGSLRLSCAASGFTFFRNAMGWYRQAPGKEMELVAAISGSGGSTYYADSVKGRFTISRDNAKNTVYLQINSLKPEDTAVYYCATYSYPAKVPEAYNYWGQGSQVTVSS | low polyreactivity
7 | QVQLVESGGGLVQAGGSLRLSCAASGFTFFRYAMGWYRQAPGKERELVATITRGGSTNYADSVKGRCTISRDNAKNTDYLQMNSLQPEDTAVYYCNKDKKTPTFDYWGQGTQVTVSS | low polyreactivity
8 | QVQLVESGGGLVQAGGSLRLSCAASGFTFFSYTMGWYRQAPGKERELVAAISKRGSRTYYADSVKGRFTISRDNAKNTVYLQRNSLKPEDTAVYYCAADCGREVVLRREDYWGQGTQVTVSS | high polyreactivity
9 | QVQLVESGGGLVQAGGSLRLSCAASGFTFFVNAMGWYRQAPGKERELVAAISIRSGGRTYYADSVKGRFTISRDNAKNTVYLQMNSLKPEDTAVYYCAAESSRPEHTYHYYRFLFDYWGQGTQVTVSS | low polyreactivity
10 | QVQLVESGGGLVQAGGSLRLSCAASGFTFFYNAMGWYRQAPGKEREFVAAISGRGGTTYYADSVKGRFTISRDNAKNTVYLQMNSLKPEDTAVYYCAARSVSTLRYTSRKLRYDYWGQGTQVTVSS | high polyreactivity
11 | QVQLVESGGGLVQAGGSLRLSCAASGFTFFYYDMGWYRQAPGKERELVADITTGGSTYYADSVKGRFTISRDNAKNTVYLQMNSLKPEDTAVYYCAALLYVSNSYRWWPWDGEDYWGQGTQVTVSS | high polyreactivity
12 | QVQLVESGGGLVQAGGSLRLSCAASGFTFFYYVMGWYRQAPGKERELVAAISQHGGSTYYADSVKGRFTISRDNAKNTVYLQMNSLKPEDTAVYYCAASPVVNRRGTYGYWGQGTQVTVSS | high polyreactivity
13 | QVQLVESGGGLVQAGGSLRLSCAASGFTFGENAMGWYRQAPGKEWELVATISDSGDSTYYADSVKGRFTISRDNAKNTVYLLMNSLKPEDTAVYDCNAEQVCYTYGRYPEWYLYGYWGQGTQVTVSS | low polyreactivity
14 | QVQLVESGGGLVQAGGSLRLSCAASGFTFGFYAMGWYRQGPGKERELVAASTRSGGTTYYADSVKGRFTISRDNAKNTVYLQMNSLKPEDTAVYYCAADYTKYYRRYYYWGQGTQVTVSS | high polyreactivity
15 | QVQLVESGGGLVQAGGSLRLSCAASGFTFGGNDMGWYSQAPGKERELVAAIRSSGDTTYYADSVKGRFTISRDNAKNTVYLQMNSLKPEDTAVSYCAAYSHHQFSRSEYYYWGKGTQVTVSS | low polyreactivity
16 | QVQLVESGGGLVQAGGSLRLSCAASGFTFGGNVMGWYRQAPGKERELVAAIRGTGGNTYYADSVKGRFTISRDNAKNTVYLQMNSLKPEDTAVYYCAAAQRELPTVRRNYWGQGTQVTVSS | high polyreactivity
17 | QVQLVESGGGLVQAGGSLRLSCAASGFTFGGYAMGWYRQAPGKERELVAAIRASGGSTYYADSVKGRFTISRDNAKNTVYLQMNSLKPEDTAVYYCNADIWYKTYDYWGQGTQVTVSS | low polyreactivity
18 | QVQLVESGGGLVQAGGSLRLSCAASGFTFGGYAMGWYRQAPGKERELVAAIRSSGDTTYYADSVKGRFTISRDNAKNTVYLQMNSLKPEDTAVYYCAAYSHHQFSRSEYYYWGQGTQVTVSS | low polyreactivity
19 | QVQLVESGGGLVQAGGSLRLSCAASGFTFGGYAMGWYRQAPGKERELVAAISKSGGRTYYADSVKGRFTISRDNAKNTVYLQMNSLKPEDTAVYYCAASTIWHYDSWGQGTQVTVSS | high polyreactivity
20 | QVQLVESGGGLVQAGGSLRLSCAASGFTFGGYVMGWYRQAPGKERELVAAISSSGGITHYADSVKGRFTISRDNAKNTVYLQMNSLKPEDTAVYYCNALYRQRYYWGQGTQVTVSS | high polyreactivity
21 | QVQLVESGGGLVQAGGSLRLSCAASGFTFGHYALGWYRQATGKERELVAAITRSGGNTYYADSVKGRFTISRYNAKNTVYLQMNSLKPEDTAVYYCAARLGWVYYSRSRYGYWGQGTQVTVSS | high polyreactivity
22 | QVQLVESGGGLVQAGGSLRLSCAASGFTFGHYAMGWYRPAPGKERELVAAISSGDRTYYADSVKGRFTISRDNAKNTVYLQMNSLKPEDTAVYYCNAVYYSWAQSARFDYWGQGTQVTVSS | low polyreactivity

Row | Sequence | polyreactivity (PSR sort gate)
23 | QVQLVESGGGLVQAGGSLRLSCAASGFTFGHYAMGWYRQAPGKERELVAAISIDGGRTYYADSVKGRFTISRDNAKNTVYLQMNSLKPEDTAVYYCAAAVAGRKMGYWGQGTQVTVSS | high polyreactivity
24 | QVQLVESGGGLVQAGGSLRLSCAASGFTFGKNAMGWYRQAPGKERELVAAIDTGDRTNYADSVKGRFTISRDNAKNTVYLQMNSLKPEDTAVYYCATDVVFSSYDYWGQGTQVTVSS | low polyreactivity
25 | QVQLVESGGGLVQAGGSLRLSCAASGFTFGLYAMGWYRQAPGKERELVAAISSDGSTYYTDSVKGRFTISRDNAKNTVYLQMNSLKPEDTSVYYCNRDYPQSLPYYTNTILYGYWGQGTQVTVSS | low polyreactivity
26 | QVQLVESGGGLVQAGGSLRLSCAASGFTFGLYTMGWYRQAPGKERELVAAITSSGARTYYADSVKGRFTISRDNAKNTVNLQMNSLKPEDTAVYYCNAGKRGSTYYYWGQGTQVTVSS | high polyreactivity
27 | QVQLVESGGGLVQAGGSLRLSCAASGFTFGNSALGWYRLAAGKERELVAAISRSGGRTYYADSVKGSFTISRDNAKNTVYLQMNSLKPEVTAVYYCARLLLSPQYGYWGQGTQVTVSS | high polyreactivity
28 | QVQLVESGGGLVQAGGSLRLSCAASGFTFGNYAMYWVRQAPGKERELVAAINYSGGSTYYADSVKGRFTISRDNAKNTVYLQMNSLKPEDTAVYYCAADTYPASYDYWGQGTQVTVSS | high polyreactivity
29 | QVQLVESGGGLVQAGGSLRLSCAASGFTFGPYAMGWYRQAPGKERELVAAIRGSGSSTYYADSVKGRFTISRDNAKNTVYLQMNSLKPEDTAVYYCAAKRRYGTDGYWGQGTQVTVSS | high polyreactivity
30 | QVQLVESGGGLVQAGGSLRLSCAASGFTFGPYDMGWYRQAPGKERELVAAITDSSGSTHYADSVKGRFTISRDNAKNTVYLQMNSLKPEDTAVYYCAAVVYYTFDYWGQGTQVTVSS | low polyreactivity
31 | QVQLVESGGGLVQAGGSLRLSCAASGFTFGPYDMGWYRQAPGKERELVAVIIGGDSTNYADSVKGRFTISRDNAKYTVYLQMNSLKPEDTAVYYCAADYIDRVGWMDYWGQGTQVTVSS | low polyreactivity
32 | QVQLVESGGGLVQAGGSLRLSCAASGFTFGRNAMGWYRQAPGKERELVARITTGGSTNYADSVKGRFTISRDNAKNTVYLQMNSLKPEDTAVYYCAATYRSLALFWTYGYWGQGTQVTVSS | low polyreactivity
33 | QVQLVESGGGLVQAGGSLRLSCAASGFTFGRNTMGWYRQAPGKERELVAAITRRGGTTHYADSVKGRFTISRDNAKNTVYLQMNSLKPEDTAVYYCAADPFNSYYGRYDYWGQGTQVTVSS | high polyreactivity
34 | QVQLVESGGGLVQAGGSLRLSCAASGFTFGRYAMGWYRQAPGKERELVAAISRGGSTYYADSVKGRFTISRDNAKNTVYLQMNSLKPEDTAVYYCNKGDSKEYDVYYWGQGTQVTVSS | low polyreactivity
35 | QVQLVESGGGLVQAGGSLRLSCAASGFTFGRYAMGWYRQAPGKERELVAAISWTGGSTYYADSVKGRFTISRDNAKNTVYLQMNSLKPEDTAVYYCAAVGRSKRDGYWGQGTQVTVSS | high polyreactivity
36 | QVQLVESGGGLVQAGGSLRLSCAASGFTFGRYGMGWYRQAPGKDREFVAAITGRTGTTYYADSVKGRFTISRDNAKNTVYLQMNSLKPEDTAVYYCAARGQYRSSRYPYYHWGQGTQVTVSS | high polyreactivity
37 | QVQLVESGGGLVQAGGSLRLSCAASGFTFGRYVMGWYRQAPGKGRELVAAITSSGSRTYYADSVKGRFTISRDNAKNTVYLQMNSLKPEHTAVYYCAARVYWTPVYYWGQGTQVTVSS | high polyreactivity
38 | QVQLVESGGGLVQAGGSLRLSCAASGFTFGSNAMGWYRQAPGKEREFVAAITYSGGGTYADSVKGRFTISRDNAKNTVDLQMNSLKPEDTAVYYCATDAYRWHYWNFGFGYWGQGTQVTVSS | high polyreactivity
39 | QVQLVESGGGLVQAGGSLRLSCAASGFTFGSNAMGWYRQAPGKERELVATISRRGGRTYYADSVKGRFTISRDNAKNTVYLQMNSLKPEDTAVYYCAAYLRPGGNYYWGQGTQVTVSS | high polyreactivity
40 | QVQLVESGGGLVQAGGSLRLSCAASGFTFGSNTMGWYRQAPGKERELVAAITTSGDSTYYADSVKGRFTISRDTAKNTVYLQMNSLKPEDTAVYYCAAERRYGRYYRLVRLLGQGTQVTVSS | high polyreactivity
41 | QVQLVESGGGLVQAGGSLRLSCAASGFTFGSYAMGWYRQAPGKDRELVAAISSNGGNTYYADSVKGRFTISRDNAKNTVYLQMNSLKPEDTAVYYCARDRQSRSLLEYDFWGQGTQVTVSS | high polyreactivity
42 | QVQLVESGGGLVQAGGSLRLSCAASGFTFGSYAMGWYRQAPGKEREFVAAIRRSGSSTYYADSVKGRFTISRDNAKNTVYLQMNSLKPEDTAVYYCAADVYRRLRRYRYYYWGQGTQVTVSS | low polyreactivity
43 | QVQLVESGGGLVQAGGSLRLSCAASGFTFGSYAMGWYRQAPGKERELVAAITCSGGSTYYADSVKGRFTISRDNAKNTVYLQMNSLKPEDTAVYYCNADVAGGYGWKSYHGYDYWGQGTQVTVSS | high polyreactivity
